Patent publication US20090170762A1, “Treatment of Diabetes Related Obesity” (UUTech Limited, priority 2005, published 2009)
Square brackets hold non-standard residues; d marks the D form. Ends that are not written are not given here. * marks the point of attachment. Palmitoyl = CCCCCCCCCCCCCCCC(=O)*; Hyp = O=C(O)[C@@H]1C[C@@H](O)CN1

Key:
human GIP-R = molecular target: T1, human GIP-R (Homo sapiens, UniProt P48546); experiment: Cyclic AMP production in GIP-R transfected CHL cells; type: cell-based
T1 construct: expressed in transfected cells; host or cells: Chinese Hamster Lung (CHL) fibroblast cells, stably transfected
T1 sequence (P48546 22-466): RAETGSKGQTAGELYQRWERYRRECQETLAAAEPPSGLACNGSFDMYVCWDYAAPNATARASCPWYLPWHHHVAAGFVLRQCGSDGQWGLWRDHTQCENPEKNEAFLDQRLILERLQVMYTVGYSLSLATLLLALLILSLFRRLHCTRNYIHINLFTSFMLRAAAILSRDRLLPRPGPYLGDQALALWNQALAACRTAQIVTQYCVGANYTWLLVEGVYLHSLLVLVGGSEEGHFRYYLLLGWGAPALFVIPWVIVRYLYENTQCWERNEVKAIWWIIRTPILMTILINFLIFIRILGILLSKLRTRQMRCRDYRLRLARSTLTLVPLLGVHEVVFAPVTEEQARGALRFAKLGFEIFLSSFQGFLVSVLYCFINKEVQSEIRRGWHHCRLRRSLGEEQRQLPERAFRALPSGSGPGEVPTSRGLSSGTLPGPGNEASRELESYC
Description: Tissue Culture. […] (v/v) fetal bovine serum, 1% (v/v) antibiotics (100 U/ml penicillin, 0.1 mg/ml streptomycin) (all from Gibco, Paisley, Strathclyde, Scotland). BRIN-BD11 cells were cultured in RPMI-1640 tissue culture medium containing 10% (v/v) fetal bovine serum, 1% (v/v) antibiotics (100 U/ml penicillin, 0.1 mg/ml streptomycin) and 11.1 mm glucose. The origin and secretory characteristics of these cells have been described in detail previously (McClenaghan, N. H. et al., 1996, Diabetes 45:1132-1140). The cells were maintained in sterile tissue culture flasks (Corning Glass Works, Sunderland, UK) at 37° C. in an atmosphere of 5% CO2 and 95% air using a LEEC incubator (Laboratory Technical Engineering, Nottingham, UK).
Methods. […] The culture medium was removed and cells subsequently washed twice with 2 ml ice-cold HBS buffer (130 mm NaCl, 20 mm HEPES, 0.9 mm NaHPO4, 0.8 mm MgSO4, 5.4 mm KCl, 1.8 mm CaCl2, 5.6 mm glucose and 25 μm phenol red) (pH 7.4). […] The medium was subsequently removed and the cells lysed with […] of lysing solution (5% TCA, 3% SDS, 92% H2O, also containing 0.1 mm unlabelled cAMP and 0.1 mm unlabelled ATP) (Sigma, Poole, Dorset, UK). The plates were then left on a shaker at room temperature for 30 minutes and tritiated cAMP formation determined by column chromatography using Dowex and alumina ion exchange columns (BioRad Life Science Research, Alpha Analytical, Larne, UK) as previously described (Gault, V. A. et al 2002, Biochem. J. 367:913-920).

DPP-IV = DPP-IV (Homo sapiens, UniProt P27487); experiment: Degradation of GIP and Glu3-substituted GIP analogs by DPP-IV (HPLC); type: in vitro ADME; details: for Intact Peptide Remaining (%) 0 hrs. / remaining at 2 h, 2 μm / remaining at 4 h, 2 μm / remaining at 8 h, 2 μm: incubation with DPP-IV (5 mU), 37°C; for Intact Peptide Remaining (%) 0 hrs.: pH 7.8, 0 hrs; for half-life: incubation with DPP-IV, unit not given (time points in hrs), read-out: Estimated Half-Life; for remaining at 2 h, 2 μm / remaining at 4 h, 2 μm / remaining at 8 h, 2 μm: isolated DPP-IV enzyme (5 mU); for remaining at 2 h, 2 μm: pH 7.8, 2 hrs, read-out: Intact Peptide Remaining (%) 2 hrs.; for remaining at 4 h, 2 μm: pH 7.8, 4 hrs, read-out: Intact Peptide Remaining (%) 4 hrs.; for remaining at 8 h, 2 μm: pH 7.8, 8 hrs, read-out: Intact Peptide Remaining (%) 8 hrs.
[1] = molecular target: T2, human GIP receptor (GIP-R) (human, UniProt P48546 22-466); experiment: cell-based or functional assay
T2 sequence (looked up): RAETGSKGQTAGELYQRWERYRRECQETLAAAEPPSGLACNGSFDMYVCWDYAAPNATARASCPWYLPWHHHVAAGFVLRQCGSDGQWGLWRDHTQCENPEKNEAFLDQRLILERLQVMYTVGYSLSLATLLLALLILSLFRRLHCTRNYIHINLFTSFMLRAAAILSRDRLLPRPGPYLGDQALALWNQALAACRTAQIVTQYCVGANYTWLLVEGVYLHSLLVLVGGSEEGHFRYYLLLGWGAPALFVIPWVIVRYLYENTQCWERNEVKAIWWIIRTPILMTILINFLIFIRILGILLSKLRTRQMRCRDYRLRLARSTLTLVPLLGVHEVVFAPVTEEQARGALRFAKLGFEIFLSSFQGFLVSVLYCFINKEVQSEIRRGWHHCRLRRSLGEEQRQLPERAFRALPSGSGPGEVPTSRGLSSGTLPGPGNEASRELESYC

Chain of DPP-IV (P27487 whole entry, species assumed): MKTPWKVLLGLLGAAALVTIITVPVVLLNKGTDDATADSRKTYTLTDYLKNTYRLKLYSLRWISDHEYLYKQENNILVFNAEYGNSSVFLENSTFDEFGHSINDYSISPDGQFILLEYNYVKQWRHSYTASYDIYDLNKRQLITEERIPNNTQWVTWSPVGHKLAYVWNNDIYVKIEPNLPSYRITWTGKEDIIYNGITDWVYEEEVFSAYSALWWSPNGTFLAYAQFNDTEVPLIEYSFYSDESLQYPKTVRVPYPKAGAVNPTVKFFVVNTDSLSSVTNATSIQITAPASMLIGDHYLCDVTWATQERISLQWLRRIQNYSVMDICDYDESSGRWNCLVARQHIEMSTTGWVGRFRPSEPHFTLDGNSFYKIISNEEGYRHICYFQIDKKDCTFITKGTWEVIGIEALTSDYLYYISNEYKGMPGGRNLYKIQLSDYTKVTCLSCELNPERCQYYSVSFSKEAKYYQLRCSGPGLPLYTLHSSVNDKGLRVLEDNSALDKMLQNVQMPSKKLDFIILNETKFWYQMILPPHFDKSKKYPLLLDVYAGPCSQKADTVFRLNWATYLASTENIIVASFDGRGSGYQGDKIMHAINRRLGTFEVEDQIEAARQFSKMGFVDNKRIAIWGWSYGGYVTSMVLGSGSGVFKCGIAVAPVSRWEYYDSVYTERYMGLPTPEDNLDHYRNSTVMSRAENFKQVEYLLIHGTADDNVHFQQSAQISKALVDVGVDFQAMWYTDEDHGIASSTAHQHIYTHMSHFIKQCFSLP

“YA[Hyp]GTFISDYSIAMDKIHQQDFVNWLLAQKGKKNDWKHNITQ [(Hyp^3)GIP]” was tested, and the EC50 (human GIP-R) was 1340 nM, the remaining activity at 0.1 µM (human GIP-R; CHL, read-out: cAMP response in presence of 10^-7 M GIP (% GIP max)) was 56 ± 4% and the “Intact Peptide Remaining (%) 0 hrs.” value (DPP-IV) was 100%. The half-life (DPP-IV) was > 8 h, the remaining at 2 h, 2 μm (DPP-IV) was 100% and the remaining at 4 h, 2 μm (DPP-IV) was 100%. The remaining at 8 h, 2 μm (DPP-IV) was 100% and the “resistance to DPP-IV degradation” value (DPP-IV; words, up to 8 hours incubation) was “completely resistant”.

“native GIP (glucose-dependent insulinotropic polypeptide; gastric inhibitory polypeptide), GIP(1-42) (from UniProt P09681 52-93) (ligand)” showed a Cyclic AMP EC50 (nm) [1] of 0.5 nm and a cAMP response in presence of 10^-7 M GIP (% GIP max) [1] of 100 % GIP max.

In the case of “YA[Hyp]GTFISDYSIAMDK(Palmitoyl)IHQQDFVNWLLAQKGKKNDWKHNITQ [(Hyp^3)LysPAL^16GIP]”, the “Intact Peptide Remaining (%) 0 hrs.” value (DPP-IV) is reported as 100%, the half-life (DPP-IV) is reported as > 8 h and the remaining at 2 h, 2 μm (DPP-IV) is reported as 100%. The remaining at 4 h, 2 μm (DPP-IV) was 100% and the remaining at 8 h, 2 μm (DPP-IV) was 100%.

For YA[Hyp]GTFISDYSIAMDKIHQQDFVNWLLAQKGKKNDWKHNITQ [(Hyp^3)GIP], the “Cyclic AMP EC50 (nm)” value [1] was 1340 nm and the “cAMP response in presence of 10^-7 M GIP (% GIP max)” value (“cAMP response … (% GIP max)” for short) [1] was 56 % GIP max.

With YAPGTFISDYSIAMDK(Palmitoyl)IHQQDFVNWLLAQKGKKNDWKHNITQ [(Pro^3)LysPAL^16GIP] the “Cyclic AMP EC50 (nm)” value [1] was 870 nm and the “cAMP response … (% GIP max)” value [1] was 63 % GIP max.

In the case of YAAGTFISDYSIAMDKIHQQDFVNWLLAQKGKKNDWKHNITQ [(Ala^3)GIP], the “Cyclic AMP EC50 (nm)” value [1] is reported as 2.3 nm and the “cAMP response … (% GIP max)” value [1] is reported as 88 % GIP max.

For YAWGTFISDYSIAMDKIHQQDFVNWLLAQKGKKNDWKHNITQ [(Trp^3)GIP], the “Cyclic AMP EC50 (nm)” value [1] was 3 nm and the “cAMP response … (% GIP max)” value [1] was 78 % GIP max.

YAFGTFISDYSIAMDKIHQQDFVNWLLAQKGKKNDWKHNITQ [(Phe^3)GIP] was tested, and the “Cyclic AMP EC50 (nm)” value [1] was 1 nm and the “cAMP response … (% GIP max)” value [1] was 62 % GIP max.

In the case of YAPGTFISDYSIAMDKIHQQDFVNWLLAQKGKKNDWKHNITQ [(Pro^3)GIP], the “Cyclic AMP EC50 (nm)” value [1] is reported as 207 nm and the “cAMP response … (% GIP max)” value [1] is reported as 66 % GIP max.

For YAYGTFISDYSIAMDKIHQQDFVNWLLAQKGKKNDWKHNITQ [(Tyr^3)GIP], the “Cyclic AMP EC50 (nm)” value [1] was 1.5 nm and the “cAMP response … (% GIP max)” value [1] was 76 % GIP max.

With YAKGTFISDYSIAMDKIHQQDFVNWLLAQKGKKNDWKHNITQ [(Lys^3)GIP] the “Cyclic AMP EC50 (nm)” value [1] was 2.6 nm and the “cAMP response … (% GIP max)” value [1] was 63.5 % GIP max.

YA[Hyp]GTFISDYSIAMDK(Palmitoyl)IHQQDFVNWLLAQKGKKNDWKHNITQ [(Hyp^3)LysPAL^16GIP] was tested, and the “Cyclic AMP EC50 (nm)” value [1] was 138 nm and the “cAMP response … (% GIP max)” value [1] was 48 % GIP max.
